US20150368309A1 (SHIRE HUMAN GENETIC THERAPIES, published 2015)
Where “and” joins values, the source holds several entries; their conditions need not be identical. Equal values may be shown once.

Assays:
[1] = target: T1, mouse sFlt-1 (mouse, UniProt P35969 23-759, limits assumed); assay: SPR (Biacore T200), msFlt-1 captured, PLGF as analyte, 1:1 model
T1 construct: also called msFlt-1
T1 sequence (looked up): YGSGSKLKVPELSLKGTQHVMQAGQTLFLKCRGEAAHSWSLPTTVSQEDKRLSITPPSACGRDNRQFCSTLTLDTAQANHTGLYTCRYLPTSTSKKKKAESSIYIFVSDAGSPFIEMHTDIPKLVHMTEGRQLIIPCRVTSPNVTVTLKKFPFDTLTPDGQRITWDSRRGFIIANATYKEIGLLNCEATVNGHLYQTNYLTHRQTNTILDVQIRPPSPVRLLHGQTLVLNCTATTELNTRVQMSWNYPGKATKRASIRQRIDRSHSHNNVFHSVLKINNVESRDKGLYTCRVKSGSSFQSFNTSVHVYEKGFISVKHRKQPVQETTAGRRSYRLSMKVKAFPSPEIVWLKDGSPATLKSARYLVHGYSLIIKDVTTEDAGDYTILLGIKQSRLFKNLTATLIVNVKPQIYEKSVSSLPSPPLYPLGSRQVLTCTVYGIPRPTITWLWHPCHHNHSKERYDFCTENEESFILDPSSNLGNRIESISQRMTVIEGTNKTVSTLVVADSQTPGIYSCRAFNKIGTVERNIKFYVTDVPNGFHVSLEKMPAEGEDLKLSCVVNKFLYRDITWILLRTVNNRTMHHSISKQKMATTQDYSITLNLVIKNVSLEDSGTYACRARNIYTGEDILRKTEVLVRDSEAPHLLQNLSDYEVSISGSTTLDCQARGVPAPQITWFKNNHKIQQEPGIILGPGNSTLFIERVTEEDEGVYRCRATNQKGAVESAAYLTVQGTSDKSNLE
Method: (§1) In the capture approach, goat anti-hIgG Fc polyclonal antibody (30 μg/mL in 10 mM acetate buffer, pH 5.0) was immobilized onto a CM5 chip by amine coupling. The immobilization level or surface density of anti-hIgG Fc antibody was controlled between 6000 to 8000 RU. For the kinetic study, sFlt-1-Fc was captured on the surface that was immobilized with the anti-hIgG Fc antibody, before each injection of PLGF variants. The capture level of sFlt-1-Fc (10 μg/mL) was controlled by varying contact time, 10 to 30 seconds, at flow rate 10 μL/min. PLGF variants, as analytes, were serially diluted in HBS-EP+ buffer from 50 to 0.03 nM, and injected to the surface that captured sFlt-1-Fc. The association time for each PLGF variants injection was 300 seconds at 30 μL/min and dissociation time was 600 seconds at the same flow rate. After each round of PLGF variants' injection, a regeneration of […] H3PO4 pH1.8 at 60 μl/min for 90 seconds was performed. The regeneration step effectively removes the complex of sFlt-1-Fc and PLGF variants from the surface that was immobilized with anti-hIgG Fc antibody. A stabilization step was applied for 90 seconds after regeneration.
(§2) The binding characteristics of PLGF variants, PLGF C59A, human WT PLGF and mouse WT PLGF, with msFlt-1 were studied in the mouse model. The same capture approach for hsFlt-1 was used for the msFlt-1.

[2] = target: T1, mouse sFlt-1; assay: SPR (Biacore T200), msFlt-1 captured, 1:1 model; column 'KD (M) Average' of the two runs
Method: as §1, §2

[3] = target: T1, mouse sFlt-1; assay: SPR, capture approach
Method: as §1, §2

[4] = target: T2, human sFlt-1-Fc (human, UniProt P17948-2 27-687, limits assumed); assay: SPR (Biacore T200), hsFlt-1-Fc, 1:1 model; column 'KD (M) Average' of the two runs
T2 construct: A bought fusion protein; also called hsFlt-1-Fc; hsFlt-1-Fc dimer; not shown: Fc part (captured and detected with anti-human IgG Fc)
T2 sequence (P17948 other isoform, or with tags, fused parts or gaps limits assumed): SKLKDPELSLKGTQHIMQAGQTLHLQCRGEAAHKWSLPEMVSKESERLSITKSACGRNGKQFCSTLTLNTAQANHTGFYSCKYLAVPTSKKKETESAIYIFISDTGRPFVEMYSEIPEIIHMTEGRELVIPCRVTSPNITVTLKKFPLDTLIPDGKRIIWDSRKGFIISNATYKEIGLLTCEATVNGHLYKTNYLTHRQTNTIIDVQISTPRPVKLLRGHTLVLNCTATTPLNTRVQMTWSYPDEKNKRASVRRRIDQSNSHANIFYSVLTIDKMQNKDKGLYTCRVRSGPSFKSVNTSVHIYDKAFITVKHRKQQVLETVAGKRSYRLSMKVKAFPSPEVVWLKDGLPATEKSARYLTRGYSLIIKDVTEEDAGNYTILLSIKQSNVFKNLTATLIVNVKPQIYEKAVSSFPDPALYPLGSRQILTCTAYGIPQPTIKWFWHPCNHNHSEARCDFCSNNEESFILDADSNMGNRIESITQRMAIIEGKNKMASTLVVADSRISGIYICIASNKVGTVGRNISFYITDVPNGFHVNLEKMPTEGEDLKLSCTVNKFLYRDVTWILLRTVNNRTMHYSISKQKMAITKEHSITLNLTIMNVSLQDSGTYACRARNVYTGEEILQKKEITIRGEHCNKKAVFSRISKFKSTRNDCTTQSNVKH

[5] = target: T2, human sFlt-1-Fc; assay: isothermal titration calorimetry, PLGF C59A (77 uM) titrated into sFlt-1-Fc (5.3 uM), 25 C, PBS pH 7.4
Method: (§3) PLGF C59A and human sFlt-1-Fc (Cat#321-FL/CF, R&D System) were extensively dialyzed against PBS pH 7.4 buffer overnight. After dialysis, the proteins were concentrated using VIVISPIN 500 (10 kDa Cutoff, Cat# vs0601). The ratio of PLGF C59A in syringe to sFlt-1-Fc in the cell was about 10:1, with PLGF C59A concentration to be 77 μM, and the concentration of sFlt1-Fc to be 5.3 μM. Titrations were carried out using 2.0-μL injections for total 18 injections. An initial 2-μl injection was carried out but the data not included in the final data analysis. All titrations were done at 25° C. The binding isotherm was fitted with nonlinear regression on ORIGIN (GE MICROCAL, INC). The stoichiometry (N) of the binding interaction, the equilibrium association constant (KA) and enthalpy (ΔH) of the complex formation were calculated from the titration data.

[6] = target: T2, human sFlt-1-Fc; assay: SPR (Biacore T200), hsFlt-1-Fc, 1:1 model; format of this run (capture or single cycle) not marked in the table
Method: In the single cycle kinetic approach, PLGF C59A at 50 μg/ml in 10 mM acetate buffer pH 5.0 was immobilized via ligand thiol coupling to ˜200 RU. sFlt-1-Fc dimer was serially diluted in HBS-EP+ running buffer from 30 to 1.875 nM. The sFlt-1-Fc dimer was injected from low to high concentration sequentially, without dissociation phase and regeneration step. The association step was 180 seconds per injection at 30 μL/min. At the end of the last injection, one single dissociation step was performed at 30 μL/min, for one hour to collect sufficient dissociation data.
Due to the nonspecific binding of hsFlt-1 on the reference cells and the poor regeneration conditions for PLGF C59A, a single cycle kinetic method were adopted by immobilizing PLGF C59A vial thiol coupling, and injecting hsFlt-1 as analyte. In the single cycle kinetic approach, PLGF C59A was immobilized onto CM4 chips through free cysteine residuals, C69 and C125, in PLGF C59A. Concentration of the Flt1-Fc dimer injected was varied from 0.37 to 30 nM. The binding characteristics, association rate constant (Ka), dissociation rate constant (Kd) and equilibrium dissociation constant (KD), are summarized in Table 6.

[7] = target: T2, human sFlt-1-Fc; assay: isothermal titration calorimetry, PLGF C59A in the syringe titrated into sFlt-1-Fc in the cell, 25 C, PBS pH 7.4, model OneSites
Method: as §3

[8] = target: T2, human sFlt-1-Fc; assay: surface plasmon resonance (BIACORE), overlaid multi-cycle sensorgrams with 1:1 binding model fit; the sheet says only 'sFlt-1', neither species nor format is printed
[9] = target: T2, human sFlt-1-Fc; assay: VEGF:sFlt1 inhibition ELISA: binding of human sFlt-1 Fc to immobilized human VEGF in the presence of PLGF, detected with HRP anti-human IgG Fc, normalized to binding without PLGF
Method: Inhibition of binding of VEGF to sFlt-1 by WT PLGF and PLGFC59A was also assessed by ELISA. The addition of recombinant human […] inhibited binding of recombinant VEGF to recombinant human sFlt-1 chimera (FIG. 6). Binding of human sFlt-1 Fc to immobilized human VEGF was quantified by immunodetection with HRP conjugated anti-human IgG Fc. Data were normalized to binding sFlt-1 Fc to VEGF in the absence of PLGF.

[10] = target: T2, human sFlt-1-Fc; assay: SPR (Biacore T200), hsFlt-1-Fc captured by anti-hIgG Fc, PLGF as analyte, 1:1 model
Method: as §1
Two BIACORE experiment formats, single cycle kinetics and anti-Fc capture approach, were used to study binding characteristic of PLGF variants with hsFlt-1.

[11] = target: T2, human sFlt-1-Fc; assay: SPR (Biacore T200), hsFlt-1-Fc captured by anti-hIgG Fc, PLGF as analyte, 1:1 model; first of the two unlabelled rows for Human WT-PLGF on Human sFlt-1
[12] = target: Flt-1 receptor (plate based assay) (Homo sapiens (Human), UniProt P17948 27-758); assay: plate based assay: Flt-1 captured by coated mouse monoclonal anti-Flt-1 antibody, bound PLGF detected with biotinylated goat anti-PLGF antibody and streptavidin-HRP, OD450
Chain of Flt-1 receptor (plate based assay) (P17948 27-758 limits assumed): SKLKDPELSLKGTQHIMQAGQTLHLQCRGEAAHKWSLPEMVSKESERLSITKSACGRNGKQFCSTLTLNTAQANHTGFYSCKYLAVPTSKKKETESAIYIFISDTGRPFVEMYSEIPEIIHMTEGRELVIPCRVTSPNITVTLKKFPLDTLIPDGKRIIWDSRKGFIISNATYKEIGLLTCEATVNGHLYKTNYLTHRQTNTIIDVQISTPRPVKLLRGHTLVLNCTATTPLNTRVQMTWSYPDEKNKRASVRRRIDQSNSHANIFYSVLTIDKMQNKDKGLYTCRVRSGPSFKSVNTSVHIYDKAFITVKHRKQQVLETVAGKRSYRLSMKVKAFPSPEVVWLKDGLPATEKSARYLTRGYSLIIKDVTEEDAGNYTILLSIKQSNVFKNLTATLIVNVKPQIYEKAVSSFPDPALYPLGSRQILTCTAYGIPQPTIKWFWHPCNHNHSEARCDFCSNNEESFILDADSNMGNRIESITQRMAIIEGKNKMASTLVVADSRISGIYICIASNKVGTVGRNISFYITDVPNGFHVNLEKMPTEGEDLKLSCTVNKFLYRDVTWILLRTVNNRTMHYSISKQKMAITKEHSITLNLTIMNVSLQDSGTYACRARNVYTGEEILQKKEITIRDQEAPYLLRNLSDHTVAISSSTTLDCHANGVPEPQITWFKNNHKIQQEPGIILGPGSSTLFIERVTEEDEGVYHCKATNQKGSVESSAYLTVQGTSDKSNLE
Method: A plate based assay was performed to examine the binding of mutant PLGF protein to Flt-1. Briefly, plates were coated with a mouse monoclonal anti-Flt-1 antibody for capture. After washing and blocking steps, 250 ng/ml of Flt-1 receptor was incubated with WT PLGF (0-400,000 pg/ml) or PLGF C59A (0-40,000 pg/ml) in the plate. After further washing steps, bound WT or mutant PLGF were detected using a biotinylated goat anti-PLGF antibody and streptavidin-HRP immunodetection system. PLGF C59A appeared to bind Flt-1 with lower affinity than WT PLGF. (FIG. 1).

B1: mouse WT PLGF (ligand, UniProt P49764 19-158, looked up)
chain: VHSQGALSAGNNSTEVEVVPFNEVWGRSYCRPMEKLVYILDEYPDEVSHIFSPSCVLLSRCSGCCGDEGLHCVPIKTANITMQILKIPPNRDPHFYVEMTFSQDVLCECRPILETTKAERRKTKGKRKRSRNSQTEEPHP
Kd [1]: 30.1 pM and 10.9 pM | koff [1]: 0.000135 s⁻¹ and 9.69e-05 s⁻¹ | kon [1]: 4.49e+06 M⁻¹ s⁻¹ and 8.86e+06 M⁻¹ s⁻¹ | Kd [2]: 20.5 pM

B2: PLGF C59A (ligand)
chain: LPAVPPQQWALSAGNGSSEVEVVPFQEVWGRSYCRALERLVDVVSEYPSEVEHMFSPSAVSLLRCTGCCGDENLHCVPVETANVTMQLLKIRSGDRPSYVELTFSQHVRCECRPLREKMKPERCGDAVPRRHHHHHH
notes: Expressed in human fibrosarcoma cells, purified on a Nickel column, glycosylated; RC4 96.7% monomer; R3 97.1% monomer, formulated in 1 mM DTT; also called C59A PLGF; not shown: Tev protease cleavage site added at the C-terminus
fold weaker affinity than human WT PLGF with msFlt-1 [3]: ~90 fold | fold weaker affinity than mouse WT PLGF with msFlt-1 [3]: ~250 fold | Kd [1]: 7220 pM and 3120 pM | koff [1]: 0.000496 s⁻¹ and 0.000633 s⁻¹ | kon [1]: 159000 M⁻¹ s⁻¹ and 87700 M⁻¹ s⁻¹ | Kd [4]: 1250 pM | Kd [2]: 5170 pM | Kd [5]: ~49000 pM | Kd [6]: 1610 pM and 886 pM | koff [6]: 0.000372 s⁻¹ and 0.000234 s⁻¹ | kon [6]: 231000 M⁻¹ s⁻¹ and 264000 M⁻¹ s⁻¹ | Ka [7]: 2.03e+07 M⁻¹ | ΔH [7]: -12.8 kcal/mol | ΔS [7]: -9.4 cal/mol/deg | Kd [8]: 572 pM | koff [8]: 0.000338 s⁻¹ | kon [8]: 592000 M⁻¹ s⁻¹ | IC50 [9]: 28300 pM

B3: wild-type human PLGF protein (ligand)
chain: LPAVPPQQWALSAGNGSSEVEVVPFQEVWGRSYCRALERLVDVVSEYPSEVEHMFSPSCVSLLRCTGCCGDENLHCVPVETANVTMQLLKIRSGDRPSYVELTFSQHVRCECRPLREKMKPERCGDAVPRR
notes: also called WT PLGF; Human WT-PLGF
koff [1]: 0.000243 s⁻¹ and 0.000152 s⁻¹ | kon [1]: 2.73e+06 M⁻¹ s⁻¹ and 6.36e+06 M⁻¹ s⁻¹ | Kd [4]: 40.5 pM | Kd [10]: 25.9 pM and 55.1 pM | koff [10]: 6.03e-05 s⁻¹ and 8.86e-05 s⁻¹ | kon [10]: 1.61e+06 M⁻¹ s⁻¹ | Kd [2]: 56.5 pM | kon [11]: 2.33e+06 M⁻¹ s⁻¹ | EC50 (read off the curve) [12]: ~200 pM | IC50 [9]: 4590 pM
